Experimental findings from article PMC12670495 (Molecular Pharmaceutics, 2025) are described below.

What all share (settings): both partners purified
For test [1], the target named is T1, Prostate-specific membrane antigen (PSMA), human (Homo sapiens, UniProt Q04609).
T1 construct: human FOLH1 (PSMA), UniProt Q04609; The methods of the multicycle SPR say only 'PSMA (R&D Systems)'; R&D Systems' recombinant human PSMA is, as far as recalled, the extracellular domain (about K44-A750) with a His tag; also called Human FOLH1; human PSMA; source: bought: R&D Systems (multicycle SPR)
Nature of the test: SPR; Biacore T200, multicycle kinetics; antibody captured on a Protein G chip (~50 RU), PSMA as analyte 25 to 1.5625 nM in HBS-EP+, 35 μL/min, association 600 s, dissociation 2400 s; 1-to-1 binding model with global Rmax.

Test [2] has as its target T2, mouse PSMA (Mus musculus, UniProt O35409).
T2 construct: PSMA (Folh1) of mouse; also called murine PSMA
Nature of the test: SPR; Biacore T200, single-cycle kinetics at 25 °C; DOTA-conjugated antibodies captured on a Protein G chip (~50 RU), PSMA as analyte 12.5 to 50 nM in HBS-EP+, 40 μL/min; Langmuir (1:1) model. On the technique in general: SPR reads the build-up and loss of mass on a sensor chip optically.
T2 sequence (O35409 whole entry): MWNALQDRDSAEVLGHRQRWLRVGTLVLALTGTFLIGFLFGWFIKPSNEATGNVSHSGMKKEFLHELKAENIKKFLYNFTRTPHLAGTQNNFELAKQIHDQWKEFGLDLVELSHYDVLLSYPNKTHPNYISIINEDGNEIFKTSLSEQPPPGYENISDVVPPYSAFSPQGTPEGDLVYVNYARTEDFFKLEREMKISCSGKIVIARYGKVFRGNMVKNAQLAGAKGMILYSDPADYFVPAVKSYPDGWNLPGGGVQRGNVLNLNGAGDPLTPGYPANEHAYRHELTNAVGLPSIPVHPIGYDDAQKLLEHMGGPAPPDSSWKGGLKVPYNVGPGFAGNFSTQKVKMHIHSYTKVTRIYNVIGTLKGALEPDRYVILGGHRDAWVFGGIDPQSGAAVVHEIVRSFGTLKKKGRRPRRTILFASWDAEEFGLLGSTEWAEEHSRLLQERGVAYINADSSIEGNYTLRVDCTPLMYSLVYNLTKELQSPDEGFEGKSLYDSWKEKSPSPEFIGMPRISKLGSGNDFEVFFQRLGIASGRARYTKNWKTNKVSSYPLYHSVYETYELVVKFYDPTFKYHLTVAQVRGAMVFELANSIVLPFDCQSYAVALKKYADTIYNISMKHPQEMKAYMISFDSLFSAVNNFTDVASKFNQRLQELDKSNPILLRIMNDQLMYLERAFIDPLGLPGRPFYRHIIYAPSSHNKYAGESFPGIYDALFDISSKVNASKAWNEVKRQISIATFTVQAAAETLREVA

Test [3] concerns the target T3, mouse PSMA (Mus musculus, UniProt O35409).
T3 construct: mouse prostate-specific membrane antigen (PSMA), purified protein; also called PSMA (Mouse); murine PSMA
Nature of the test: SPR; Biacore T200, single-cycle kinetics, 25 °C, HBS-EP+; antibody-DOTA captured on a Protein G chip (~50 RU); PSMA as analyte, three-point 2-fold dilution 12.5-50 nM, 40 uL/min; association 200 s, dissociation 1500 s; Langmuir 1:1 fit.
T3 sequence (O35409 whole entry): as above

B1: ANT4044 IgG1 (antibody, V domains shown)
VH: EVQLVQSGAEVKKPGASVKVSCKASGYTFTEYTIHWVRQAPGKGLEWIGNINPNNGGTTYNQKFEDRVTITVDKSTSTAYMELSSLRSEDTAVYYCAAGWNFDYWGQGTTVTVSS
VL: DIQMTQSPSTLSASVGDRVTITCKASQDVGTAVDWYQQKPGQAPKLLIYWASTRHTGVPDRFSGSGSGTDFTLTISRLQPEDFAVYYCQQYNSYPLTFGQGTKVDIK
notes: VH of the humanized antibody ANT4044 (derived from murine J591); IgG1 heavy chain constant region, unmodified; VK of the humanized antibody ANT4044; constant region of the light chain is not described; IgG1; also called unmodified IgG1; ANT4044 unmodified IgG1 construct; source: CHO cells, transiently transfected; purified (Protein A, preparative SEC); copies: 2 + 2
With B1, in test [1], the Kd – broadly, the constant that tells how readily two partners part at equilibrium – turned out to be 0.734 nM; the koff (in general, a measure of how fast the partners let go of each other) is 7.88e-05 s⁻¹; the kon (commonly the rate constant with which the complex forms) amounted to 107000 M⁻¹ s⁻¹.

B2: ANT4044 IgG1 (H310A, H435Q) (antibody, V domains shown)
VH: EVQLVQSGAEVKKPGASVKVSCKASGYTFTEYTIHWVRQAPGKGLEWIGNINPNNGGTTYNQKFEDRVTITVDKSTSTAYMELSSLRSEDTAVYYCAAGWNFDYWGQGTTVTVSS
VL: DIQMTQSPSTLSASVGDRVTITCKASQDVGTAVDWYQQKPGQAPKLLIYWASTRHTGVPDRFSGSGSGTDFTLTISRLQPEDFAVYYCQQYNSYPLTFGQGTKVDIK
notes: VH of ANT4044, as the heavy chain of m1; IgG1 heavy chain constant region with H310A and H435Q; VK of ANT4044, as the light chain of m1; constant region of the light chain is not described, as the light chain of m1; IgG1; Lead construct; the introduction names 'this engineered PSMA antibody' TLX592 without saying which variant is meant; also called modified IgG1 (H310A, H435Q); PK-modified …
As to B2, in test [1], the Kd came to 0.737 nM, the koff came to 7.48e-05 s⁻¹ and the on-rate (kon) was 101000 M⁻¹ s⁻¹.

B3: ANT4044-DOTA (antibody, V domains shown)
VH: EVQLVQSGAEVKKPGASVKVSCKASGYTFTEYTIHWVRQAPGKGLEWIGNINPNNGGTTYNQKFEDRVTITVDKSTSTAYMELSSLRSEDTAVYYCAAGWNFDYWGQGTTVTVSS
VL: DIQMTQSPSTLSASVGDRVTITCKASQDVGTAVDWYQQKPGQAPKLLIYWASTRHTGVPDRFSGSGSGTDFTLTISRLQPEDFAVYYCQQYNSYPLTFGQGTKVDIK
notes: VH of ANT4044, as the heavy chain of m1; VK of ANT4044, as the light chain of m1; constant region of the light chain is not described, as the light chain of m1; source: CHO cells, transiently transfected, purified; conjugated with NHS-DOTA; copies: 2 + 2
Consider B3, for which the binding result in test [2] is reported as “no binding (tested: 12.5 to 50 nM tested)”.

B4: ANT4044-DOTA (antibody, V domains shown)
VH: EVQLVQSGAEVKKPGASVKVSCKASGYTFTEYTIHWVRQAPGKGLEWIGNINPNNGGTTYNQKFEDRVTITVDKSTSTAYMELSSLRSEDTAVYYCAAGWNFDYWGQGTTVTVSS
VL: DIQMTQSPSTLSASVGDRVTITCKASQDVGTAVDWYQQKPGQAPKLLIYWASTRHTGVPDRFSGSGSGTDFTLTISRLQPEDFAVYYCQQYNSYPLTFGQGTKVDIK
For the molecule B4, the binding result in test [3] is on record as “no binding (tested: 12.5 to 50 nM)”.

B5: ANT4044 IgG4 (S228P, L235E, H310A, H435Q) (antibody, V domains shown)
VH: EVQLVQSGAEVKKPGASVKVSCKASGYTFTEYTIHWVRQAPGKGLEWIGNINPNNGGTTYNQKFEDRVTITVDKSTSTAYMELSSLRSEDTAVYYCAAGWNFDYWGQGTTVTVSS
VL: DIQMTQSPSTLSASVGDRVTITCKASQDVGTAVDWYQQKPGQAPKLLIYWASTRHTGVPDRFSGSGSGTDFTLTISRLQPEDFAVYYCQQYNSYPLTFGQGTKVDIK
notes: VH of ANT4044, as the heavy chain of m1; IgG4 heavy chain constant region with S228P, L235E, H310A and H435Q; VK of ANT4044, as the light chain of m1; constant region of the light chain is not described, as the light chain of m1; IgG4; also called modified IgG4; source: CHO cells, transiently transfected; purified (Protein G, preparative SEC); copies: 2 + 2
In test [1], B5 yielded a Kd of 0.743 nM, a koff of 0.000104 s⁻¹ and an association rate constant (kon) of 139000 M⁻¹ s⁻¹.
